In experiment [1] the target is T1, Her2 ECD (amino acids 1 to 629 of matured HER2 with C-terminal avi-tag and His-tag) (human, UniProt P04626 23-652).
T1 construct: also called purified Her2
Nature of the experiment: SPR, Ab captured, Her2 analyte.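 Also: ProteOn XPR36 SPR, rate constants from simultaneous fit of association and dissociation sensorgrams to a 1:1 Langmuir model, buffer-channel referenced, KD taken as koff/kon.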 On the technique in general: SPR reads the build-up and loss of mass on a sensor chip optically.

For experiment [2], the target named is T2, human transferrin receptor (recombinant, for surface plasmon resonance) (human, UniProt P02786 89-760).
T2 construct: also called huTfR; human transferrin receptor-biotinylated
Nature of the experiment: SPR.

One may read the Kd as the concentration at which binding is half-saturated. A low value points to tighter binding. One may read the koff as the rate constant with which the complex falls apart. As a reminder, the kon is the second-order rate constant of association. High values mean faster complex formation, low ones slower complex formation.

Substitutions are numbered along the chain they refer to. Names may count otherwise.

T2 sequence (P02786 89-760 limits assumed): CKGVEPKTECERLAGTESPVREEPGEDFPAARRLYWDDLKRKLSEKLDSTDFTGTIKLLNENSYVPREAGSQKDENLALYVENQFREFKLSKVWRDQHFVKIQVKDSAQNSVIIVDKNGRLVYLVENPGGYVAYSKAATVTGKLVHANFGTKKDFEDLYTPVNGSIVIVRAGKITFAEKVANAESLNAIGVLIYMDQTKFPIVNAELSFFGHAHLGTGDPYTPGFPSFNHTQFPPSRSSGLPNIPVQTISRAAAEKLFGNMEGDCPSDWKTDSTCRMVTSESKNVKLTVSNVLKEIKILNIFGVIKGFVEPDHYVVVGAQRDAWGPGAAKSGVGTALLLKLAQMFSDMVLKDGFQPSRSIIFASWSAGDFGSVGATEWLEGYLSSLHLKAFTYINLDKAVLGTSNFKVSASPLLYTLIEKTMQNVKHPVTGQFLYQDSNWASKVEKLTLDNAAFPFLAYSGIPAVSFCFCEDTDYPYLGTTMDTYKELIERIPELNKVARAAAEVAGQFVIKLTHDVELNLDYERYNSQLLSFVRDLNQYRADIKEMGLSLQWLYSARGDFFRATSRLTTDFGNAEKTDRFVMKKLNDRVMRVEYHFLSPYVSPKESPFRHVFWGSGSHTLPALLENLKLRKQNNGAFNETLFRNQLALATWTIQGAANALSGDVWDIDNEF

B1: Pertuzumab HC x Pertuzumab (Tras.L3) I31T LC (antibody, V domains shown)
VH: EVQLVESGGGLVQPGGSLRLSCAASGFTFTDYTMDWVRQAPGKGLEWVADVNPNSGGSIYNQRFKGRFTLSVDRSKNTLYLQMNSLRAEDTAVYYCARNLGPSFYFDYWGQGTLVTVSS
VL: DIQMTQSPSSLSASVGDRVTITCKASQDVSTGVAWYQQKPGKAPKLLIYSASYRYTGVPSRFSGSGSGTDFTLTISSLQPEDFATYYCQQHYTTPPTFGQGTKVEIK
With B1, in experiment [1], binding was characterised by a dissociation constant (Kd) of 4.06 nM, the koff amounted to 0.00175 s⁻¹ and the kon stood at 431000 M⁻¹ s⁻¹.

B2: Pertuzumab HC x Pertuzumab (Tras.L3) R54L LC (antibody, V domains shown)
VH: B1 VH
VL: B1 VL with T31I, R54L
In experiment [1], B2 registered a Kd of 4.87 nM, a koff of 0.00226 s⁻¹ and a kon of 464000 M⁻¹ s⁻¹.

B3: Trastuzumab HC x Pertuzumab (Tras.L3) S30N LC (antibody, V domains shown)
VH: not shown
VL: B1 VL with S30N, T31I
For B3, in experiment [1], the Kd came out at 64.6 nM, the koff is 0.0256 s⁻¹ and the kon amounted to 396000 M⁻¹ s⁻¹.

B4: Trastuzumab HC x Pertuzumab (Tras.L3) R54L LC (antibody, V domains shown)
VH: not shown
VL: B1 VL with T31I, R54L
In experiment [1], B4 showed a dissociation constant (Kd) of 71.5 nM, a koff of 0.0297 s⁻¹ and a kon of 416000 M⁻¹ s⁻¹.

B5: Trastuzumab HC x Pertuzumab (Tras.L3) Y53F LC (antibody, V domains shown)
VH: not shown
VL: B1 VL with T31I, Y53F
In the case of B5, in experiment [1], binding was characterised by a dissociation constant (Kd) of 44.9 nM, the koff was found to be 0.0171 s⁻¹ and the kon is 381000 M⁻¹ s⁻¹.

B6: Trastuzumab HC x Pertuzumab (Tras.L3) T56S LC (antibody, V domains shown)
VH: not shown
VL: B1 VL with T31I, T56S
With B6, in experiment [1], the Kd was 49.4 nM, the koff worked out at 0.0232 s⁻¹ and the on-rate (kon) was found to be 470000 M⁻¹ s⁻¹.

B7: Trastuzumab HC x Pertuzumab (Tras.L3) G32A LC (antibody, V domains shown)
VH: not shown
VL: B1 VL with T31I, G32A
Consider B7, for which, in experiment [1], the Kd is 3.97 nM, the koff was found to be 0.00268 s⁻¹ and the kon came to 675000 M⁻¹ s⁻¹.

B8: Pertuzumab HC x Pertuzumab (Tras.L3) S30N LC (antibody, V domains shown)
VH: B1 VH
VL: B1 VL with S30N, T31I
In experiment [1], B8 displayed a Kd of 3.4 nM, a dissociation rate constant (koff) of 0.0018 s⁻¹ and a kon of 530000 M⁻¹ s⁻¹.

B9: Trastuzumab HC x Pertuzumab (Tras.L3) K24R LC (antibody, V domains shown)
VH: not shown
VL: B1 VL with K24R, T31I
As for B9, in experiment [1], the affinity, expressed as Kd, was 66.8 nM; the off-rate (koff) worked out at 0.0252 s⁻¹; the kon is 377000 M⁻¹ s⁻¹.

B10: Pertuzumab HC x Pertuzumab (Tras.L3) Y53F LC (antibody, V domains shown)
VH: B1 VH
VL: B1 VL with T31I, Y53F
As to B10, in experiment [1], binding was put at a Kd of 8.03 nM, the koff came to 0.00254 s⁻¹ and the association rate constant (kon) was determined as 316000 M⁻¹ s⁻¹.

B11: Pertuzumab HC x Pertuzumab (Tras.L3) P96Y LC (antibody, V domains shown)
VH: B1 VH
VL: B1 VL with T31I, P96Y
In the case of B11, in experiment [1], binding was characterised by a dissociation constant (Kd) of 2.82 nM, the koff worked out at 0.00097 s⁻¹ and the kon turned out to be 344000 M⁻¹ s⁻¹.

B12: Trastuzumab HC x Pertuzumab (Tras.L3) I31V LC (antibody, V domains shown)
VH: not shown
VL: B1 VL with T31V
Turning to B12, in experiment [1], the Kd is 28 nM, the koff turned out to be 0.0116 s⁻¹ and the kon is 413000 M⁻¹ s⁻¹.

B13: Pertuzumab HC x Pertuzumab (Tras.L3) I31V LC (antibody, V domains shown)
VH: B1 VH
VL: B1 VL with T31V
In experiment [1], B13 had a Kd of 4.35 nM, a koff of 0.00192 s⁻¹ and a kon of 440000 M⁻¹ s⁻¹.

B14: Pertuzumab HC x Pertuzumab (Tras.L3) T56S LC (antibody, V domains shown)
VH: B1 VH
VL: B1 VL with T31I, T56S
In experiment [1], B14 yielded a Kd of 5.52 nM, a koff of 0.00245 s⁻¹ and a kon of 443000 M⁻¹ s⁻¹.

B15: Pertuzumab HC x Pertuzumab (Tras.L3) K24R LC (antibody, V domains shown)
VH: B1 VH
VL: B1 VL with K24R, T31I
In experiment [1], B15 registered a Kd of 4.62 nM, a koff of 0.00211 s⁻¹ and a kon of 457000 M⁻¹ s⁻¹.

B16: Trastuzumab HC x Pertuzumab (Tras.L3) G66R LC (antibody, V domains shown)
VH: not shown
VL: B1 VL with T31I, G66R
For the molecule B16, in experiment [1], the Kd turned out to be 10.9 nM, the koff was 0.00558 s⁻¹ and the association rate constant (kon) is 514000 M⁻¹ s⁻¹.

B17: Trastuzumab HC x Pertuzumab (Tras.L3) I31T LC (antibody, V domains shown)
VH: not shown
VL: B1 VL
In the case of B17, in experiment [1], the Kd turned out to be 7.21 nM, the koff is 0.00341 s⁻¹ and the kon was 473000 M⁻¹ s⁻¹.

B18: Pertuzumab HC x Pertuzumab (Tras.L3) T94Y LC (antibody, V domains shown)
VH: B1 VH
VL: B1 VL with T31I, T94Y
In experiment [1], B18 had a Kd of 0.782 nM, a koff of 0.00063 s⁻¹ and a kon of 805000 M⁻¹ s⁻¹.

B19: 4/94 SEQ ID NO 196 / SEQ ID NO 201 (antibody, V domains shown)
VH: QVQLVQSGAEVKKPGASVKVSCKASGFNIKDTYIHWVIQAPGQGLEWMGRIDPANGDTKSDPKFQGRVTITADTSTSTVYMELSSLRSEDTAVYYCVRDYLYPYYFDFWGQGTTVTVSS
VL: KIQMTQSPSSLSASVGDRVTITCRASESVDTYVSWYQQKPGKAPKLLIYGASNRYTGVPSRFSGSGSGTDFTLTISSLQPEDFADYYCGQTYNYPLTFGQGTKLEI
For B19, the koff in experiment [2] amounted to 0.000386 s⁻¹.

B20: 4/94 SEQ ID NO 196 / SEQ ID NO 207 (antibody, V domains shown)
VH: B19 VH
VL: KIVLTQSPGTLSLSPGERATLSCRASESVDTYVSWYQQKPGQAPRLLIYGASNRYTGVPDRFSGSGSGTDFTLTISRLEPEDFADYYCGQTYNYPLTFGQGTKLEI
As to B20, the koff in experiment [2] is 0.00043 s⁻¹.

B21: 4/94 SEQ ID NO 197 / SEQ ID NO 201 (antibody, V domains shown)
VH: B19 VH with A16S, T74E, V79A
VL: B19 VL
As for B21, the off-rate constant (koff) in experiment [2] is 0.000657 s⁻¹.

B22: 4/94 SEQ ID NO 198 / SEQ ID NO 201 (antibody, V domains shown)
VH: B19 VH with A16S, A40R, T74E, V79A
VL: B19 VL
As to B22, the off-rate constant (koff) in experiment [2] was found to be 0.000684 s⁻¹.

B23: 4/94 SEQ ID NO 194 / SEQ ID NO 208 (antibody, V domains shown)
VH: B19 VH with G66V
VL: B20 VL with K1E
With B23, the koff in experiment [2] was found to be 0.000476 s⁻¹.

B24: 4/94 SEQ ID NO 194 / SEQ ID NO 207 (antibody, V domains shown)
VH: B19 VH with G66V
VL: B20 VL
Regarding B24, the koff in experiment [2] was determined as 0.000454 s⁻¹.

B25: 4/94 SEQ ID NO 195 / SEQ ID NO 201 (antibody, V domains shown)
VH: B19 VH with D61A, G66V
VL: B19 VL
As for B25, the koff in experiment [2] was determined as 0.000399 s⁻¹.

B26: 4/94 SEQ ID NO 194 / SEQ ID NO 201 (antibody, V domains shown)
VH: B19 VH with G66V
VL: B19 VL
In the case of B26, in experiment [2], the koff was 0.00041 s⁻¹.

B27: 4/94 murine VH / murine VL (antibody, V domains shown)
VH: EVQLQQSGAVLVKPGASVKLSCPASGFNIKDTYIHWVIQRPEQGLEWIGRIDPANGDTKCDPKFQVKATITADTSSNTAYLQLSSLTSEDTAVYFCVRDYLYPYYFDFWGQGTTLTVSS
VL: KIVMTQSPKSMSMSVGERVTLNCRASESVDTYVSWYQQKPEQSPELLIYGASNRYTGVPDRFTGSGSATDFTLTISSVQAEDLADYYCGQTYNYPLTFGAGTKLELKR
notes: 0 (mu) read as the murine parental domains of clone 4/94; also called 0 (mu) x 0 (mu)
As to B27, the koff in experiment [2] was 0.000136 s⁻¹.

B28: 4/94 SEQ ID NO 196 / murine VL (antibody, V domains shown)
VH: B19 VH
VL: B27 VL
Consider B28, for which the koff in experiment [2] amounted to 0.000339 s⁻¹.

B29: 4/94 murine VH / SEQ ID NO 201 (antibody, V domains shown)
VH: B27 VH
VL: B19 VL
Take B29: in experiment [2], the koff was 0.000137 s⁻¹.

B30: 4/94 murine VH / SEQ ID NO 207 (antibody, V domains shown)
VH: B27 VH
VL: B20 VL
As to B30, the koff in experiment [2] was 0.000156 s⁻¹.

B31: 4/94 SEQ ID NO 194 / murine VL (antibody, V domains shown)
VH: B19 VH with G66V
VL: B27 VL
As for B31, the koff in experiment [2] is 0.00037 s⁻¹.

B32: 4/94 SEQ ID NO 198 / murine VL (antibody, V domains shown)
VH: B19 VH with A16S, A40R, T74E, V79A
VL: B27 VL
On to B32, for which, in experiment [2], the koff worked out at 0.000544 s⁻¹.

B33: 4/94 SEQ ID NO 197 / murine VL (antibody, V domains shown)
VH: B19 VH with A16S, T74E, V79A
VL: B27 VL
B33: the koff in experiment [2] turned out to be 0.000542 s⁻¹.

B34: 4/94 murine VH / SEQ ID NO 208 (antibody, V domains shown)
VH: B27 VH
VL: B20 VL with K1E
As to B34, in experiment [2], the koff came out at 0.000148 s⁻¹.

B35: 4/94 murine VH / SEQ ID NO 209 (antibody, V domains shown)
VH: B27 VH
VL: B20 VL with V58I
On to B35, for which the koff in experiment [2] worked out at 0.000177 s⁻¹.

B36: 4/94 SEQ ID NO 195 / murine VL (antibody, V domains shown)
VH: B19 VH with D61A, G66V
VL: B27 VL
In the case of B36, the koff in experiment [2] came to 0.000364 s⁻¹.

The record behind these values is patent US20180291110A1 (Hoffmann-La Roche, published 2018).
